From US20180104307A1 (University of California, published 2018)

B1: GST-GIV-CT (amino acids 1660-1870) (other)
chain: ETLESRHHKIKTGSPGSEVVTLQQFLEESNKLTSVQIKSSSQENLLDEVMKSLSVSSDFLGKDKPVSCGLARSVSGKTPGDFYDRRTTKPEFLRPGPRKTEDTYFISSAGKPTPGTQGKIKLVKESSLSRQSKDSNPYATLPRASSVISTAEGTTRRTSIHDFLTKDSRLPISVDSPPAAADSNTTAASNVDKVQESRNSKSRSREQQSS
notes: Immobilised on glutathione-agarose beads; also called GST-tagged GIV-CT peptide; not shown: glutathione S-transferase tag
B2: TAT-GIV-CT-F1685A (peptide)
chain: MRGSHHHHHHGMASMTGGQQMGRDLYDDDDKDRWGSKLGYGRKKRRQRRRGGSTMSGYPYDVPDYAGSMGGSGHSGETLESRHHKIKTGSPGSEVVTLQQALEESNKLTSVQIKSSSQENLLDEVMKSLSVSSDFLGKDKPVSCGLARSVSGKTPGDFYDRRTTKPEFLRPGPRKTEDTYFISSAGKPTPGTQGKIKLVKESSLSRQSKDSNPYATLPRASSVISTAEGTTRRTSIHDFLTKDSRLPISVDSPPAAADSNTTAASNVDKVQESRNSKSRSREQQSS
notes: Recombinant, made in E. coli; GEF-deficient mutant; also called TAT-GIV-CT-FA; FA

Key:
[1] = target: T1, His-Gαi3 (GDP-loaded) (UniProt P08753 1-354); test: GST pulldown: GST-GIV-CT on glutathione-agarose beads with 0.01-3 µM His-Gαi3; anti-His band intensities fitted to a single-site hyperbola; three experiments
T1 construct: Purified protein, GDP-loaded
T1 sequence (P08753 whole entry): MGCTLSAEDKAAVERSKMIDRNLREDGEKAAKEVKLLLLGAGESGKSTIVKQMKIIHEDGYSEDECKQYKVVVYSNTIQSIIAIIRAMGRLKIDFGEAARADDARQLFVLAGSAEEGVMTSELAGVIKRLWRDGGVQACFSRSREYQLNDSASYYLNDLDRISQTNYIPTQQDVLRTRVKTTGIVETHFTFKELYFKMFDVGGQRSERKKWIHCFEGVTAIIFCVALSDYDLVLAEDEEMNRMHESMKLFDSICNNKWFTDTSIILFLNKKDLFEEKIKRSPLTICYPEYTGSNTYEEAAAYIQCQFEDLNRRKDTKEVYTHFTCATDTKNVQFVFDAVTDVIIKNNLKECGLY

[2] = target: T2, GST-Gαi3 (GDP loaded) (rat, UniProt P08753 1-354); test: GST pulldown with GDP-loaded GST-Gαi3, anti-His immunoblot
T2 construct: not shown: glutathione S-transferase tag encoded by pGEX-4T-1
T2 sequence (P08753 whole entry): as above

Binder | Kd [1] | binding result [2]
B1 | 0.24 µM | 
B2 |  | no binding
